The record followed here is patent publication US20240182575A1 (Ablynx, published 2024).

Experiment [1] has as its target T1, HuCTLA4-HuIgG1 (fusion protein of the extracellular part of human CD152 and human Fc gamma 1, CTLA4-Ig) (human, UniProt P16410 36-161).
T1 construct: extracellular domain; also called CTLA4-hFc; CTLA4-Fc; not shown: human Fc gamma 1
Put plainly: SPR, Biacore T100, CTLA4-Ig amine-coupled. As for the experimental part: Affinity constants (Kd) of individual purified Nanobody clones were determined by surface plasmon resonance on a Biacore T100 instrument. […] Remaining reactive groups were inactivated using ethanolamine. […] Each sample was injected for 2 min at a flow rate of 45 μl/min to allow for binding to chip-bound antigen. Next, binding buffer without Nanobody was sent over the chip at the same flow rate to allow for dissociation of bound Nanobody. After 2 min, remaining bound analyte was removed by injecting regeneration solution (10 mM Glycine/HCl pH 1.5). Binding curves obtained at different concentrations of Nanobody were used to calculate KD values. For some clones, only a single undetermined concentrations of Nanobody was injected.
Background: Surface plasmon resonance follows binding to a sensor surface in real time, without labels.

Experiment [2] concerns the target T2, cynomolgus monkey CTLA4 on stably transfected CHO-K1 cells (human CTLA4 cDNA with S13N, I17T and L105M) (human backbone with cynomolgus monkey …, UniProt P16410 36-223).
T2 chain: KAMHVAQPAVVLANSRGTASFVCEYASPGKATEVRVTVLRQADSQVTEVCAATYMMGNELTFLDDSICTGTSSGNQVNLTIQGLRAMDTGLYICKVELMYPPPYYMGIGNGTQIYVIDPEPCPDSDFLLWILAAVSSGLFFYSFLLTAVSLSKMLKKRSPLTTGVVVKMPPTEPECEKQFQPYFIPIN
Put plainly: FACS, direct binding titration on cyno CTLA4 CHO cells (head prints IC50). (In general: Flow cytometry measures light scatter and fluorescence of single cells or particles in a stream.)

Experiment [3] has as its target T3, human CTLA4 (Y201 mutated to valine) on stably transfected CHO-K1 cells (human, UniProt P16410 36-223).
T3 construct: whole, on cells; the mutation of the intracellular position Y201 keeps the protein on the membrane; also called human CTLA4 overexpressing CHO cells; human CTLA4 transfectant
Put plainly: FACS, direct binding titration on human CTLA4 CHO cells (head prints IC50). As for the experimental part: Binding of putative CTLA4 reactive Nanobodies clones was detected using unlabeled anti-c-myc tag mouse monoclonal antibody 9E10, followed by a phycoerythrin conjugated F(ab′)2 derived from goat-anti-mouse IgG (human and bovine crossabsorbed), and read on a BD FACSarray instrument. Dead cells were excluded from the analysis by gating out TOPRO3 vital dye positive scoring cells. Binding of the Nanobodies to cells was evaluated in BD FACSarray control software as PE channel histograms.

Experiment [4] has as its target T4, HuCD86-HuIgG1 (fusion protein of the extracellular part of human CD86 and human Fc gamma 1, R&D Systems Cat … (human, UniProt P42081 24-247)).
T4 construct: extracellular domain; bought; also called CD86-IgG1; CD86-Ig; not shown: human Fc gamma 1
T4 sequence (looked up): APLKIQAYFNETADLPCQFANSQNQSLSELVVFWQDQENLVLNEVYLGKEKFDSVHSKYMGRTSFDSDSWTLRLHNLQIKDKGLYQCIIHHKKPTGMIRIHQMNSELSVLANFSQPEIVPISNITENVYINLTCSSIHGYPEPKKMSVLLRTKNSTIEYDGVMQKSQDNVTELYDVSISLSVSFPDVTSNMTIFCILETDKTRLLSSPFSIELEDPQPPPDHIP
As to the kind of experiment: SPR, Biacore 3000, antigen amine-coupled. On the procedure: Affinity constants (Kd) of individual purified Nanobody clones were determined by surface plasmon resonance on a Biacore 3000 instrument. […] Remaining reactive groups were inactivated using ethanolamine. Nanobody binding was assessed at 1 and 0.1 microM. Each sample was injected for 4 min at a flow rate of 45 μl/min to allow for binding to chip-bound antigen. Next, binding buffer without Nanobody was sent over the chip at the same flow rate to allow for dissociation of bound Nanobody. After 2 min, remaining bound analyte was removed by injecting regeneration solution (50 mM NaOH or Glycine/HCl pH 1.5). Binding curves obtained at different concentrations of Nanobody were used to calculate Kd values.

Experiment [5] addresses T4, HuCD86-HuIgG1 (fusion protein of the …). As to the kind of experiment: ELISA, periplasmic extract on coated antigen, anti-myc detection. The source says: (§1) To this end, 3 independent ELISA assays were set up. In these ELISAs, either HuCD80 or HuCD86 fusion proteins or human IgG1 were coated on ELISA plates which were washed and then blocked using Marvel skimmed milk powder (Premier Brands UK Ltd., Wirral, Merseyside, UK). […] Four aliquots of periplasmic extract of individual clones prepared as described in Example 4 were allowed to bind in all four types of ELISA plates. Binding of Nanobody to immobilized antigen was detected using mouse anti-c-myc tag monoclonal antibody as a secundary, followed by a goat-anti-mouse (human and bovine serum protein pre-absorbed) HRP conjugate for detection (for detailed protocol, see the prior art and prior applications filed by applicant).
For orientation: An ELISA detects its analyte on a solid surface through an enzyme-linked reagent.

Experiment [6] deals with T5, Human IgG1, purified from a human plasma (Sigma-Aldrich Cat #I-5154) (human).
T5 construct: also called HuIgG1
The description is as above.
From the text: as §1

Experiment [7] deals with T6, HuCD80-HuIgG1 (fusion protein of the extracellular part of human CD80 and human Fc gamma 1, R&D Systems Cat … (human, UniProt P33681 35-242)).
T6 construct: extracellular domain; bought, produced in NS0 cells; also called CD80-IgG1; CD80-Ig; not shown: human Fc gamma 1
T6 sequence (looked up): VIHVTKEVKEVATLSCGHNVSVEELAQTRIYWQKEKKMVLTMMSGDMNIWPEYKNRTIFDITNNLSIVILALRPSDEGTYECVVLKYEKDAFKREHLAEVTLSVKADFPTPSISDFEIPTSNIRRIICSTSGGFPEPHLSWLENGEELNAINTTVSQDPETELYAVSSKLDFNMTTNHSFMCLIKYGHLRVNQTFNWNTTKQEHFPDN
The experiment is described as above.
From the text: as §1

T1 sequence (P16410 36-161 limits assumed): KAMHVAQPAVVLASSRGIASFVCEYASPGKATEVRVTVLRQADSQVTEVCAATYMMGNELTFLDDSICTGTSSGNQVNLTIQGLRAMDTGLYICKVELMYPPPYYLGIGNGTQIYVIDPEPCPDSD
T3 sequence (P16410 other isoform, or with tags, fused parts or gaps, change not shown): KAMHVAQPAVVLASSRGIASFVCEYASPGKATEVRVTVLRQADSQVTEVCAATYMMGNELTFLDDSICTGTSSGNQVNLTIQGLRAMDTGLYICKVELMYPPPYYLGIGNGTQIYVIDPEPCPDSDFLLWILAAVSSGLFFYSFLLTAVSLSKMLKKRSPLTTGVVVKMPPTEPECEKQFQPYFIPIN

B1: 4CTLAPMP02A5 (VHH)
VHH: EVQLVESGGGLVQAGGSLRLSCAASGRTNSTTLMGWSRRAPGKEREFVAAISGSGTLTSYADSVKGRFAISRDNAKNTVYLQMNSLKPEDTAIYYCAAGLTSWALIPSRTLTTWGQGTQVTVSS
notes: short label tied to the entry by the clone code only; not shown: C-terminal c-myc tag and His6 tag
Usually koff stands for a measure of how fast the partners let go of each other. As a reminder, the IC50 is the concentration needed to halve the response being measured. With B1, the koff in experiment [1] came to 0.0053 s⁻¹. In addition, the figures for the IC50 in experiment [2] and in experiment [3] were 7.74 nM and 5.72 nM, respectively.

B2: 4CTLAPMP06C10 (VHH)
VHH: EVQLVESGGGLVQAGGSLRLSCAASGRTFSNYTIAYFRQAPGREREFAAAISPHGTLRSFADSVKDRFTISRDNAKNTVWLQMNSLKLEDTAVYYCAADPSGWGLRQHSENEYPYWGLGTQVTVSS
notes: as for B1
On to B2, for which the koff in experiment [1] was 0.00279 s⁻¹. Moreover, the IC50 came to 5.47 nM in experiment [2] and 5.73 nM in experiment [3].

B3: 4CTLAPMP10G5 (VHH)
VHH: EVQLVESGGGLVQAGGSLRLSCAASGGTFSRYIMAWFRQAPGKEREFVAVIDGSGYSTDYAGSVKGRFTIARDNTKNTAYLQMNSLKPEDTALYFCGAGRQYSTGPYWYDYWGQGTQVTVSS
notes: as for B1
B3 had a koff in experiment [1] of 0.00618 s⁻¹. In experiment [3], this molecule registered an IC50 of 4.65 nM.

B4: 4CTLAPMP13B2 (VHH)
VHH: EVQLVESGGGLVQPGGSLRLSCVASGIHFAISTINWYRQAPGKQRESVAAITGTSVTGYADSVKGRFTLSRDNAKNTVYLQMDNLKPEDTAVYYCNVWSGRDYWGQGTQVTVSS
notes: as for B1
B4 had a koff in experiment [1] of 0.0067 s⁻¹. For the same molecule, the IC50 in experiment [3] stood at 3.6 nM.

B5: CD8086PMP2B10 (VHH)
VHH: EVQLVESGGGLVQAGGSLRLSCTGSQISFSDNTMNWYRQVPGKQRELVASLSIFGATGYADSVKGRFTISRDIAGNTVYLQMNDLKIEDTAVYYCKLGPVRRSRLEYWGQGTQVTVSS
notes: not shown: C-terminal c-myc tag and His6 tag
For orientation: Kd means the constant that tells how readily two partners part at equilibrium. The term kon denotes a measure of how fast the partners come together. Take B5: in experiment [4], the Kd is 4 nM, the off-rate constant (koff) turned out to be 0.00097 s⁻¹ and the kon came out at 250000 M⁻¹ s⁻¹. In experiment [5], this molecule showed an OD of 1.73 OD. In experiment [6], this molecule registered an OD of 0.044 OD.

B6: 4CTLAPMP11E3 (VHH)
VHH: EVQLVESGGGLVEPGGSLRLSCAASGSISSYNVMGWYRQAPGQQRDLVAHIASNGEIMYADSAKGRFTISRDNAKKTVYLQMNSLKPEDTAVYYCKLWVLGNDYWGQGTQVTVSS
notes: also called 11E3 WT; not shown: C-terminal c-myc tag and His6 tag
With B6, in experiment [1], the Kd was 10 nM, the koff stood at 0.00496 s⁻¹ and the kon came to 742000 M⁻¹ s⁻¹. For the same molecule, the IC50 in experiment [2] came out at 4.5 nM. In experiment [3], the half-maximal inhibitory concentration (IC50) worked out at 4.91 nM.

B7: 4CTLAPMP12H2 (VHH)
VHH: EVQLVESGGGLVEPGGSLRLSCAASGSISSYNVMGWYRQAPGQQRDLVAHIASNGEIMYADSAKGRFTISRDNAKKTVYLQMNSLKPEDTAVYYCKLWVLGNDYWGQRTQVTVSS
notes: as for B1
In experiment [1], B7 returned a Kd of 7.52 nM, a koff of 0.00258 s⁻¹ and a kon of 349000 M⁻¹ s⁻¹. Moreover, the IC50 in experiment [2] was determined as 5.65 nM. In addition, the IC50 in experiment [3] was determined as 5.82 nM.

B8: 4CTLAPMP17E3 (VHH)
VHH: EVQLMESGGGLVTAGGSLRLSCAASGGTFGHYAMAWFRRPPGNEREFVAGIGWTYTTFYADSVKGRFAISRDNAENTVYLQMNNLKPDDTAVYYCAAAELKGRNLRVPDYEHWGQGTQVTVSS
notes: as for B1
Consider B8, for which the koff in experiment [1] stood at 0.00489 s⁻¹. In addition, in experiment [3], the IC50 came to 11.2 nM.

B9: CD8086PMP1A3 (VHH)
VHH: EVQLVESGGGLVQAGGSLRLSCAASGPTSSSYSMGWFRQAPGKEREFVAAINWSHGVTYYADSVKGRFTISRDIAKNTVYLQMNSLKPEDTAVYYCAANEYGLGSSIYAYKHWGQGTQVTVSS
notes: as for B5
On to B9, for which the OD turned out to be 1.92 OD in experiment [7], 0.053 OD in experiment [5] and 0.052 OD in experiment [6].

B10: 4CTLAPMP03C4 (VHH)
VHH: EVQLVESGGGLVQAGGSLRLSCAASGGTFSFYGMGWFRQAPGKEREFVADIRTSAGRTYYADSVKGRFTISRDNAKNTVYLQMNSLKPEDTAVYYCAAEMSGISGWDYWGQGTQVTVSS
notes: as for B1
Consider B10, for which the off-rate constant (koff) in experiment [1] was 0.0205 s⁻¹. Further, the concentration for half-maximal inhibition (IC50) worked out at 6.73 nM in experiment [2] and 8.06 nM in experiment [3].

B11: CD8086PMP1D1 (VHH)
VHH: EVQLVESGGGLVQAGGSLRLSCAASGRTFSSKAMGWFRQAPGKERDFVAAITWSGGSTYYADHVKGRFTISRDNAKNTVYLQMNSLKPEDTAVYYCATNPYGLGQVGYDYWGQGTQVTVSS
notes: as for B5
As for B11, the OD in experiment [7] was 1.89 OD; in experiment [5], 0.043 OD; in experiment [6], 0.046 OD.

B12: CD8086PMP2A7 (VHH)
VHH: EVQLVESGGGLVQAGGSLRLSCAASGRTFSSKAMGWFRQAPGKERDFVAAITWSGGSTYYADHVKGRFTISRDNAKNTVYLQMNSLKPEDTAVYYCATNPYGLGQVGYDYWGQGTQVTVSS
notes: as for B5
Consider B12, for which the figures for the OD in experiment [7], in experiment [5] and in experiment [6] were 1.71 OD, 0.042 OD and 0.043 OD, respectively.

B13: CD8086PMP2E6 (VHH)
VHH: EVQLVESGGGLVQAGGSLRLSCAASGSIFSIYDMGWYRQAPGKQRVLVATITSGGSTNYADSVKGRFTISRDDAKNTVYLQMNSLKPEDTAVYYCNAIAHEEGVYRWDFWGQGTQVTVSS
notes: as for B5
For B13, the figures for the OD in experiment [7], in experiment [5] and in experiment [6] were 1.52 OD, 0.538 OD and 0.049 OD, respectively.

B14: 4CTLAPMP02C11 (VHH)
VHH: EVQLVESGGGLVQPGGSLRLSCAASGNIFTRHIMGWYRQAPGKQRELVASITPGDNINYADSVKGRFTISRDGAKNTVYLQMNSLKPEDTAVYYCNAHGSILLDRTNYWGQGTQVTVSS
notes: as for B1
Turning to B14, in experiment [1], the koff turned out to be 0.0235 s⁻¹.

B15: 4CTLAPMP08E5 (VHH)
VHH: EVQLVESGGGLVQPGGSLRLSCAASRDIFTRNIMGWYRQAPGKQRDLVASITPGGNMYYADSVKGRFTISRDGAKNTVYLQMNSLKPEDTAVYYCNAHGSILLDRSNYWGQGTQVTVSS
notes: label 8E5.4 tied to 4CTLAPMP08E5 by the clone code only; the suffix .4 is not explained; also called 8E5.4; not shown: C-terminal c-myc tag and His6 tag
Turning to B15, in experiment [1], the koff came out at 0.00386 s⁻¹.

B16: 4CTLAPMP03A6 (VHH)
VHH: EVQLVESGGGLVQPGGSLRLSCAAPGRTFSNYAMGWFRQAPGKGREFVADIRWSDGRTYYADSVKGRFTVSRDNAKNTVYLQMNSLKPEDTAVYYCAAQGGVLSGWDYWGQGTQVTVSS
notes: as for B1
As to B16, in experiment [1], the koff is 0.0018 s⁻¹.
